# Laboratory results: patent publication US9957297B2, “Template-fixed peptidomimetics as inhibitors of FPR1” (POLYPHOR AG, priority 2011, dated 2018)
# Bridges are numbered along the chain shown (N, C = ends). [ ]: non-standard residue; d: D form. Dab = NCC[C@H](N)C(=O)O
# T1: Formyl-Peptide Receptor 1 (UniProt P21462 1-350, limits assumed)
# T1 sequence (looked up): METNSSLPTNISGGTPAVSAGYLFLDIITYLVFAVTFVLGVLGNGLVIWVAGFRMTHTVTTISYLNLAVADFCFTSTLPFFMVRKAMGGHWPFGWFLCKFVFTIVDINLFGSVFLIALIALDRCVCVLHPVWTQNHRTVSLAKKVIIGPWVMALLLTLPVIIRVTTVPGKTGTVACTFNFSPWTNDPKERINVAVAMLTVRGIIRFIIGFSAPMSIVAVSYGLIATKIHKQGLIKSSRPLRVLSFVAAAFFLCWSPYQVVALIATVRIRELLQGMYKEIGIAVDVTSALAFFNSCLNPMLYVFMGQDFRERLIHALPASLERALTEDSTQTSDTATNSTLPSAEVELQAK
# B1: cyclo(-Tyr-His-Ile-Cys-His-Gly-^DPro-Trp-Thr-Ile-Cys-Tyr-Gln-Lys-^DPro-Pro-) (peptide)
# peptide: cyclo(YHICHG[dP]WTICYQK[dP]P)
# modifications: disulfide 4-11
# SMILES: CC[C@H](C)[C@@H]1NC(=O)[C@H](Cc2c[nH]cn2)NC(=O)[C@H](Cc2ccc(O)cc2)NC(=O)[C@@H]2CCCN2C(=O)[C@H]2CCCN2C(=O)[C@H](CCCCN)NC(=O)[C@H](CCC(N)=O)NC(=O)[C@H](Cc2ccc(O)cc2)NC(=O)[C@@H]2CSSC[C@H](NC1=O)C(=O)N[C@@H](Cc1c[nH]cn1)C(=O)NCC(=O)N1CCC[C@@H]1C(=O)N[C@@H](Cc1c[nH]c3ccccc13)C(=O)N[C@@H]([C@@H](C)O)C(=O)N[C@@H]([C@@H](C)CC)C(=O)N2
# B2: cyclo(-Dab-His-Lys-Cys-His-Gly-^DPro-Trp-Thr-Ile-Cys-Tyr-Glu-Lys-^DPro-Glu-) (peptide)
# peptide: cyclo([Dab]HKCHG[dP]WTICYEK[dP]E)
# modifications: disulfide 4-11
# SMILES: CC[C@H](C)[C@@H]1NC(=O)[C@H]([C@@H](C)O)NC(=O)[C@H](Cc2c[nH]c3ccccc23)NC(=O)[C@H]2CCCN2C(=O)CNC(=O)[C@H](Cc2c[nH]cn2)NC(=O)[C@@H]2CSSC[C@H](NC1=O)C(=O)N[C@@H](Cc1ccc(O)cc1)C(=O)N[C@@H](CCC(=O)O)C(=O)N[C@@H](CCCCN)C(=O)N1CCC[C@@H]1C(=O)N[C@@H](CCC(=O)O)C(=O)N[C@@H](CCN)C(=O)N[C@@H](Cc1c[nH]cn1)C(=O)N[C@@H](CCCCN)C(=O)N2
# B3: cyclo(-Tyr-His-Ala-Cys-Trp-Gly-^DPro-Trp-Thr-Ile-Cys-Tyr-Gln-Glu-^DPro-Pro-) (peptide)
# peptide: cyclo(YHACWG[dP]WTICYQE[dP]P)
# modifications: disulfide 4-11
# SMILES: CC[C@H](C)[C@@H]1NC(=O)[C@H]([C@@H](C)O)NC(=O)[C@H](Cc2c[nH]c3ccccc23)NC(=O)[C@H]2CCCN2C(=O)CNC(=O)[C@H](Cc2c[nH]c3ccccc23)NC(=O)[C@@H]2CSSC[C@H](NC1=O)C(=O)N[C@@H](Cc1ccc(O)cc1)C(=O)N[C@@H](CCC(N)=O)C(=O)N[C@@H](CCC(=O)O)C(=O)N1CCC[C@@H]1C(=O)N1CCC[C@H]1C(=O)N[C@@H](Cc1ccc(O)cc1)C(=O)N[C@@H](Cc1c[nH]cn1)C(=O)N[C@@H](C)C(=O)N2
# B4: cyclo(-Tyr-His-Ala-Cys-Trp-Gly-^DPro-Trp-Thr-Ile-Cys-Tyr-Trp-Lys-^DPro-Pro-) (peptide)
# peptide: cyclo(YHACWG[dP]WTICYWK[dP]P)
# modifications: disulfide 4-11
# SMILES: CC[C@H](C)[C@@H]1NC(=O)[C@H]([C@@H](C)O)NC(=O)[C@H](Cc2c[nH]c3ccccc23)NC(=O)[C@H]2CCCN2C(=O)CNC(=O)[C@H](Cc2c[nH]c3ccccc23)NC(=O)[C@@H]2CSSC[C@H](NC1=O)C(=O)N[C@@H](Cc1ccc(O)cc1)C(=O)N[C@@H](Cc1c[nH]c3ccccc13)C(=O)N[C@@H](CCCCN)C(=O)N1CCC[C@@H]1C(=O)N1CCC[C@H]1C(=O)N[C@@H](Cc1ccc(O)cc1)C(=O)N[C@@H](Cc1c[nH]cn1)C(=O)N[C@@H](C)C(=O)N2
# B5: cyclo(-Tyr-His-Ala-Cys-Phe-Gly-^DPro-Trp-Thr-Ile-Cys-Tyr-Gln-Lys-^DPro-Pro-) (peptide)
# peptide: cyclo(YHACFG[dP]WTICYQK[dP]P)
# modifications: disulfide 4-11
# SMILES: CC[C@H](C)[C@@H]1NC(=O)[C@H]([C@@H](C)O)NC(=O)[C@H](Cc2c[nH]c3ccccc23)NC(=O)[C@H]2CCCN2C(=O)CNC(=O)[C@H](Cc2ccccc2)NC(=O)[C@@H]2CSSC[C@H](NC1=O)C(=O)N[C@@H](Cc1ccc(O)cc1)C(=O)N[C@@H](CCC(N)=O)C(=O)N[C@@H](CCCCN)C(=O)N1CCC[C@@H]1C(=O)N1CCC[C@H]1C(=O)N[C@@H](Cc1ccc(O)cc1)C(=O)N[C@@H](Cc1c[nH]cn1)C(=O)N[C@@H](C)C(=O)N2
# B6: cyclo(-Tyr-His-Ala-Cys-His-Gly-^DPro-Trp-Thr-Ile-Cys-Tyr-Gln-Glu-^DPro-Pro-) (peptide)
# peptide: cyclo(YHACHG[dP]WTICYQE[dP]P)
# modifications: disulfide 4-11
# SMILES: CC[C@H](C)[C@@H]1NC(=O)[C@H]([C@@H](C)O)NC(=O)[C@H](Cc2c[nH]c3ccccc23)NC(=O)[C@H]2CCCN2C(=O)CNC(=O)[C@H](Cc2c[nH]cn2)NC(=O)[C@@H]2CSSC[C@H](NC1=O)C(=O)N[C@@H](Cc1ccc(O)cc1)C(=O)N[C@@H](CCC(N)=O)C(=O)N[C@@H](CCC(=O)O)C(=O)N1CCC[C@@H]1C(=O)N1CCC[C@H]1C(=O)N[C@@H](Cc1ccc(O)cc1)C(=O)N[C@@H](Cc1c[nH]cn1)C(=O)N[C@@H](C)C(=O)N2
# B7: cyclo(-Tyr-His-Glu-Cys-His-Gly-^DPro-Trp-Thr-Ile-Cys-Tyr-Gln-Lys-^DPro-Pro-) (peptide)
# peptide: cyclo(YHECHG[dP]WTICYQK[dP]P)
# modifications: disulfide 4-11
# SMILES: CC[C@H](C)[C@@H]1NC(=O)[C@H]([C@@H](C)O)NC(=O)[C@H](Cc2c[nH]c3ccccc23)NC(=O)[C@H]2CCCN2C(=O)CNC(=O)[C@H](Cc2c[nH]cn2)NC(=O)[C@@H]2CSSC[C@H](NC1=O)C(=O)N[C@@H](Cc1ccc(O)cc1)C(=O)N[C@@H](CCC(N)=O)C(=O)N[C@@H](CCCCN)C(=O)N1CCC[C@@H]1C(=O)N1CCC[C@H]1C(=O)N[C@@H](Cc1ccc(O)cc1)C(=O)N[C@@H](Cc1c[nH]cn1)C(=O)N[C@@H](CCC(=O)O)C(=O)N2
# B8: cyclo(-Tyr-His-Ala-Cys-Trp-Gly-^DPro-Trp-Thr-Ile-Cys-Tyr-Gln-Ala-^DPro-Pro-) (peptide)
# peptide: cyclo(YHACWG[dP]WTICYQA[dP]P)
# modifications: disulfide 4-11
# SMILES: CC[C@H](C)[C@@H]1NC(=O)[C@H]([C@@H](C)O)NC(=O)[C@H](Cc2c[nH]c3ccccc23)NC(=O)[C@H]2CCCN2C(=O)CNC(=O)[C@H](Cc2c[nH]c3ccccc23)NC(=O)[C@@H]2CSSC[C@H](NC1=O)C(=O)N[C@@H](Cc1ccc(O)cc1)C(=O)N[C@@H](CCC(N)=O)C(=O)N[C@@H](C)C(=O)N1CCC[C@@H]1C(=O)N1CCC[C@H]1C(=O)N[C@@H](Cc1ccc(O)cc1)C(=O)N[C@@H](Cc1c[nH]cn1)C(=O)N[C@@H](C)C(=O)N2
# B9: cyclo(-Tyr-His-Ala-Cys-His-Gly-^DPro-Trp-Thr-Ile-Cys-Tyr-Trp-Lys-^DPro-Pro-) (peptide)
# peptide: cyclo(YHACHG[dP]WTICYWK[dP]P)
# modifications: disulfide 4-11
# SMILES: CC[C@H](C)[C@@H]1NC(=O)[C@H]([C@@H](C)O)NC(=O)[C@H](Cc2c[nH]c3ccccc23)NC(=O)[C@H]2CCCN2C(=O)CNC(=O)[C@H](Cc2c[nH]cn2)NC(=O)[C@@H]2CSSC[C@H](NC1=O)C(=O)N[C@@H](Cc1ccc(O)cc1)C(=O)N[C@@H](Cc1c[nH]c3ccccc13)C(=O)N[C@@H](CCCCN)C(=O)N1CCC[C@@H]1C(=O)N1CCC[C@H]1C(=O)N[C@@H](Cc1ccc(O)cc1)C(=O)N[C@@H](Cc1c[nH]cn1)C(=O)N[C@@H](C)C(=O)N2
# B10: cyclo(-Tyr-His-Ala-Cys-Trp-Gly-^DPro-Trp-Thr-Ile-Cys-Tyr-Glu-Lys-^DPro-Pro-) (peptide)
# peptide: cyclo(YHACWG[dP]WTICYEK[dP]P)
# modifications: disulfide 4-11
# SMILES: CC[C@H](C)[C@@H]1NC(=O)[C@H]([C@@H](C)O)NC(=O)[C@H](Cc2c[nH]c3ccccc23)NC(=O)[C@H]2CCCN2C(=O)CNC(=O)[C@H](Cc2c[nH]c3ccccc23)NC(=O)[C@@H]2CSSC[C@H](NC1=O)C(=O)N[C@@H](Cc1ccc(O)cc1)C(=O)N[C@@H](CCC(=O)O)C(=O)N[C@@H](CCCCN)C(=O)N1CCC[C@@H]1C(=O)N1CCC[C@H]1C(=O)N[C@@H](Cc1ccc(O)cc1)C(=O)N[C@@H](Cc1c[nH]cn1)C(=O)N[C@@H](C)C(=O)N2
# Target: T1, Formyl-Peptide Receptor 1
# Test: cell-based or functional assay
row,β-Arrestin IC50 [nM],Binder
1,35,B1
2,144,B2
3,63,B3
4,62,B4
5,166,B5
6,132,B6
7,321,B7
8,76,B8
9,36,B9
10,68,B10
